Numbered stars: 1 amine (or outer) side, 2 acyl side, 3 side chain; on linkers, the order of the positions; unused ones are H or OH. Square brackets hold non-standard residues; d marks the D form. Side chains are listed from the residue outwards. Ends that are not written are not given here. * marks the point of attachment. C20 diacid = O=C(O)CCCCCCCCCCCCCCCCCCC(=O)*; γGlu = O=C(O)[C@H](CCC(=O)[*:2])N[*:1]; AEEA = NCCOCCOCC(=O)O; Aib = CC(C)(N)C(=O)O
Assays:
human GLP-1 receptor = human GLP-1 receptor (human, UniProt P43220 24-463); test: cell-based or functional assay
human GIP receptor = biological target: T1, human GIP receptor (human, UniProt P48546 22-466); test: cell-based or functional assay
T1 sequence (looked up): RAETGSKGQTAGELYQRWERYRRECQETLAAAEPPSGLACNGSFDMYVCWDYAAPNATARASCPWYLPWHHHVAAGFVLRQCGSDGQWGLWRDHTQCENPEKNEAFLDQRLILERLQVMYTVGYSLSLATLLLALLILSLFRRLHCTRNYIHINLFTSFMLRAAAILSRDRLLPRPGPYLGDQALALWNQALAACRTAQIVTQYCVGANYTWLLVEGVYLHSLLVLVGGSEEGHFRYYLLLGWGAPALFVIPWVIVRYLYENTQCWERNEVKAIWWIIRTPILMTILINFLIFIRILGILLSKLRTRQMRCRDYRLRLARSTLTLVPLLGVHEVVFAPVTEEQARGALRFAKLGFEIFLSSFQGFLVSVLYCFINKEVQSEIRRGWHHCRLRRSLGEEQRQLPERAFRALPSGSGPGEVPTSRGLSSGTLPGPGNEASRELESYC

B1: Example 40 (peptide)
peptide: Y[Aib]EGTFTSDYSILLDKIAQ[Aib]AFIEYLIEGGK([AEEA-AEEA-γGlu-C20 diacid])SSGAPPPS-NH2
modifications: N-terminus assumed
SMILES: CC[C@H](C)[C@H](NC(=O)[C@H](CCCCN)NC(=O)[C@H](CC(=O)O)NC(=O)[C@H](CC(C)C)NC(=O)[C@H](CC(C)C)NC(=O)[C@@H](NC(=O)[C@H](CO)NC(=O)[C@H](Cc1ccc(O)cc1)NC(=O)[C@H](CC(=O)O)NC(=O)[C@H](CO)NC(=O)[C@@H](NC(=O)[C@H](Cc1ccccc1)NC(=O)[C@@H](NC(=O)CNC(=O)[C@H](CCC(=O)O)NC(=O)C(C)(C)NC(=O)[C@@H](N)Cc1ccc(O)cc1)[C@@H](C)O)[C@@H](C)O)[C@@H](C)CC)C(=O)N[C@@H](C)C(=O)N[C@@H](CCC(N)=O)C(=O)NC(C)(C)C(=O)N[C@@H](C)C(=O)N[C@@H](Cc1ccccc1)C(=O)N[C@H](C(=O)N[C@@H](CCC(=O)O)C(=O)N[C@@H](Cc1ccc(O)cc1)C(=O)N[C@@H](CC(C)C)C(=O)N[C@H](C(=O)N[C@@H](CCC(=O)O)C(=O)NCC(=O)NCC(=O)N[C@@H](CCCCNC(=O)COCCOCCNC(=O)COCCOCCNC(=O)CC[C@H](NC(=O)CCCCCCCCCCCCCCCCCCC(=O)O)C(=O)O)C(=O)N[C@@H](CO)C(=O)N[C@@H](CO)C(=O)NCC(=O)N[C@@H](C)C(=O)N1CCC[C@H]1C(=O)N1CCC[C@H]1C(=O)N1CCC[C@H]1C(=O)N[C@@H](CO)C(N)=O)[C@@H](C)CC)[C@@H](C)CC
- hGLP1R cAMP EC50 ratio (human GLP-1 receptor): 0.0801
- hGLP1R cAMP Rel EC50 (human GLP-1 receptor): 0.746 nM
- hGIPR cAMP EC50 ratio (human GIP receptor): 1.06
- hGIPR cAMP Rel EC50 (human GIP receptor): 0.136 nM

B2: Example 38 (peptide)
peptide: Y[Aib]EGTFTSDYSILLDKIAQ[Aib]AFIEYLIEK([AEEA-AEEA-γGlu-C20 diacid])GPSSGAPPPS-NH2
modifications: N-terminus assumed
SMILES: CC[C@H](C)[C@H](NC(=O)[C@H](CCCCN)NC(=O)[C@H](CC(=O)O)NC(=O)[C@H](CC(C)C)NC(=O)[C@H](CC(C)C)NC(=O)[C@@H](NC(=O)[C@H](CO)NC(=O)[C@H](Cc1ccc(O)cc1)NC(=O)[C@H](CC(=O)O)NC(=O)[C@H](CO)NC(=O)[C@@H](NC(=O)[C@H](Cc1ccccc1)NC(=O)[C@@H](NC(=O)CNC(=O)[C@H](CCC(=O)O)NC(=O)C(C)(C)NC(=O)[C@@H](N)Cc1ccc(O)cc1)[C@@H](C)O)[C@@H](C)O)[C@@H](C)CC)C(=O)N[C@@H](C)C(=O)N[C@@H](CCC(N)=O)C(=O)NC(C)(C)C(=O)N[C@@H](C)C(=O)N[C@@H](Cc1ccccc1)C(=O)N[C@H](C(=O)N[C@@H](CCC(=O)O)C(=O)N[C@@H](Cc1ccc(O)cc1)C(=O)N[C@@H](CC(C)C)C(=O)N[C@H](C(=O)N[C@@H](CCC(=O)O)C(=O)N[C@@H](CCCCNC(=O)COCCOCCNC(=O)COCCOCCNC(=O)CC[C@H](NC(=O)CCCCCCCCCCCCCCCCCCC(=O)O)C(=O)O)C(=O)NCC(=O)N1CCC[C@H]1C(=O)N[C@@H](CO)C(=O)N[C@@H](CO)C(=O)NCC(=O)N[C@@H](C)C(=O)N1CCC[C@H]1C(=O)N1CCC[C@H]1C(=O)N1CCC[C@H]1C(=O)N[C@@H](CO)C(N)=O)[C@@H](C)CC)[C@@H](C)CC
- hGLP1R cAMP EC50 ratio (human GLP-1 receptor): 0.0217
- hGLP1R cAMP Rel EC50 (human GLP-1 receptor): 2.82 nM
- hGIPR cAMP EC50 ratio (human GIP receptor): 0.967
- hGIPR cAMP Rel EC50 (human GIP receptor): 0.147 nM

B3: Example 41 (peptide)
peptide: Y[Aib]EGTFTSDYSILLDKIAQ[Aib]AFIEYLIEGGPK([AEEA-AEEA-γGlu-C20 diacid])SGAPPPS-NH2
modifications: N-terminus assumed
SMILES: CC[C@H](C)[C@H](NC(=O)[C@H](CCCCN)NC(=O)[C@H](CC(=O)O)NC(=O)[C@H](CC(C)C)NC(=O)[C@H](CC(C)C)NC(=O)[C@@H](NC(=O)[C@H](CO)NC(=O)[C@H](Cc1ccc(O)cc1)NC(=O)[C@H](CC(=O)O)NC(=O)[C@H](CO)NC(=O)[C@@H](NC(=O)[C@H](Cc1ccccc1)NC(=O)[C@@H](NC(=O)CNC(=O)[C@H](CCC(=O)O)NC(=O)C(C)(C)NC(=O)[C@@H](N)Cc1ccc(O)cc1)[C@@H](C)O)[C@@H](C)O)[C@@H](C)CC)C(=O)N[C@@H](C)C(=O)N[C@@H](CCC(N)=O)C(=O)NC(C)(C)C(=O)N[C@@H](C)C(=O)N[C@@H](Cc1ccccc1)C(=O)N[C@H](C(=O)N[C@@H](CCC(=O)O)C(=O)N[C@@H](Cc1ccc(O)cc1)C(=O)N[C@@H](CC(C)C)C(=O)N[C@H](C(=O)N[C@@H](CCC(=O)O)C(=O)NCC(=O)NCC(=O)N1CCC[C@H]1C(=O)N[C@@H](CCCCNC(=O)COCCOCCNC(=O)COCCOCCNC(=O)CC[C@H](NC(=O)CCCCCCCCCCCCCCCCCCC(=O)O)C(=O)O)C(=O)N[C@@H](CO)C(=O)NCC(=O)N[C@@H](C)C(=O)N1CCC[C@H]1C(=O)N1CCC[C@H]1C(=O)N1CCC[C@H]1C(=O)N[C@@H](CO)C(N)=O)[C@@H](C)CC)[C@@H](C)CC
- hGLP1R cAMP EC50 ratio (human GLP-1 receptor): 0.0637
- hGLP1R cAMP Rel EC50 (human GLP-1 receptor): 0.96 nM
- hGIPR cAMP EC50 ratio (human GIP receptor): 0.637
- hGIPR cAMP Rel EC50 (human GIP receptor): 0.229 nM

B4: Example 39 (peptide)
peptide: Y[Aib]EGTFTSDYSILLDKIAQ[Aib]AFIEYLIEGK([AEEA-AEEA-γGlu-C20 diacid])PSSGAPPPS-NH2
modifications: N-terminus assumed
SMILES: CC[C@H](C)[C@H](NC(=O)[C@H](CCCCN)NC(=O)[C@H](CC(=O)O)NC(=O)[C@H](CC(C)C)NC(=O)[C@H](CC(C)C)NC(=O)[C@@H](NC(=O)[C@H](CO)NC(=O)[C@H](Cc1ccc(O)cc1)NC(=O)[C@H](CC(=O)O)NC(=O)[C@H](CO)NC(=O)[C@@H](NC(=O)[C@H](Cc1ccccc1)NC(=O)[C@@H](NC(=O)CNC(=O)[C@H](CCC(=O)O)NC(=O)C(C)(C)NC(=O)[C@@H](N)Cc1ccc(O)cc1)[C@@H](C)O)[C@@H](C)O)[C@@H](C)CC)C(=O)N[C@@H](C)C(=O)N[C@@H](CCC(N)=O)C(=O)NC(C)(C)C(=O)N[C@@H](C)C(=O)N[C@@H](Cc1ccccc1)C(=O)N[C@H](C(=O)N[C@@H](CCC(=O)O)C(=O)N[C@@H](Cc1ccc(O)cc1)C(=O)N[C@@H](CC(C)C)C(=O)N[C@H](C(=O)N[C@@H](CCC(=O)O)C(=O)NCC(=O)N[C@@H](CCCCNC(=O)COCCOCCNC(=O)COCCOCCNC(=O)CC[C@H](NC(=O)CCCCCCCCCCCCCCCCCCC(=O)O)C(=O)O)C(=O)N1CCC[C@H]1C(=O)N[C@@H](CO)C(=O)N[C@@H](CO)C(=O)NCC(=O)N[C@@H](C)C(=O)N1CCC[C@H]1C(=O)N1CCC[C@H]1C(=O)N1CCC[C@H]1C(=O)N[C@@H](CO)C(N)=O)[C@@H](C)CC)[C@@H](C)CC
- hGLP1R cAMP EC50 ratio (human GLP-1 receptor): 0.0323
- hGLP1R cAMP Rel EC50 (human GLP-1 receptor): 1.92 nM
- hGIPR cAMP EC50 ratio (human GIP receptor): 1.07
- hGIPR cAMP Rel EC50 (human GIP receptor): 0.133 nM

B5: Example 42 (peptide)
peptide: Y[Aib]EGTFTSDYSILLDKIAQ[Aib]AFIEYLIEGGPSK([AEEA-AEEA-γGlu-C20 diacid])GAPPPS-NH2
modifications: N-terminus assumed
SMILES: CC[C@H](C)[C@H](NC(=O)[C@H](CCCCN)NC(=O)[C@H](CC(=O)O)NC(=O)[C@H](CC(C)C)NC(=O)[C@H](CC(C)C)NC(=O)[C@@H](NC(=O)[C@H](CO)NC(=O)[C@H](Cc1ccc(O)cc1)NC(=O)[C@H](CC(=O)O)NC(=O)[C@H](CO)NC(=O)[C@@H](NC(=O)[C@H](Cc1ccccc1)NC(=O)[C@@H](NC(=O)CNC(=O)[C@H](CCC(=O)O)NC(=O)C(C)(C)NC(=O)[C@@H](N)Cc1ccc(O)cc1)[C@@H](C)O)[C@@H](C)O)[C@@H](C)CC)C(=O)N[C@@H](C)C(=O)N[C@@H](CCC(N)=O)C(=O)NC(C)(C)C(=O)N[C@@H](C)C(=O)N[C@@H](Cc1ccccc1)C(=O)N[C@H](C(=O)N[C@@H](CCC(=O)O)C(=O)N[C@@H](Cc1ccc(O)cc1)C(=O)N[C@@H](CC(C)C)C(=O)N[C@H](C(=O)N[C@@H](CCC(=O)O)C(=O)NCC(=O)NCC(=O)N1CCC[C@H]1C(=O)N[C@@H](CO)C(=O)N[C@@H](CCCCNC(=O)COCCOCCNC(=O)COCCOCCNC(=O)CC[C@H](NC(=O)CCCCCCCCCCCCCCCCCCC(=O)O)C(=O)O)C(=O)NCC(=O)N[C@@H](C)C(=O)N1CCC[C@H]1C(=O)N1CCC[C@H]1C(=O)N1CCC[C@H]1C(=O)N[C@@H](CO)C(N)=O)[C@@H](C)CC)[C@@H](C)CC
- hGLP1R cAMP EC50 ratio (human GLP-1 receptor): 0.0471
- hGLP1R cAMP Rel EC50 (human GLP-1 receptor): 1.45 nM
- hGIPR cAMP EC50 ratio (human GIP receptor): 0.897
- hGIPR cAMP Rel EC50 (human GIP receptor): 0.161 nM

B6: Example 43 (peptide)
peptide: Y[Aib]EGTFTSDYSILLDKIAQ[Aib]AFIEYLIEGGPSSK([AEEA-AEEA-γGlu-C20 diacid])APPPS-NH2
modifications: N-terminus assumed
SMILES: CC[C@H](C)[C@H](NC(=O)[C@H](CCCCN)NC(=O)[C@H](CC(=O)O)NC(=O)[C@H](CC(C)C)NC(=O)[C@H](CC(C)C)NC(=O)[C@@H](NC(=O)[C@H](CO)NC(=O)[C@H](Cc1ccc(O)cc1)NC(=O)[C@H](CC(=O)O)NC(=O)[C@H](CO)NC(=O)[C@@H](NC(=O)[C@H](Cc1ccccc1)NC(=O)[C@@H](NC(=O)CNC(=O)[C@H](CCC(=O)O)NC(=O)C(C)(C)NC(=O)[C@@H](N)Cc1ccc(O)cc1)[C@@H](C)O)[C@@H](C)O)[C@@H](C)CC)C(=O)N[C@@H](C)C(=O)N[C@@H](CCC(N)=O)C(=O)NC(C)(C)C(=O)N[C@@H](C)C(=O)N[C@@H](Cc1ccccc1)C(=O)N[C@H](C(=O)N[C@@H](CCC(=O)O)C(=O)N[C@@H](Cc1ccc(O)cc1)C(=O)N[C@@H](CC(C)C)C(=O)N[C@H](C(=O)N[C@@H](CCC(=O)O)C(=O)NCC(=O)NCC(=O)N1CCC[C@H]1C(=O)N[C@@H](CO)C(=O)N[C@@H](CO)C(=O)N[C@@H](CCCCNC(=O)COCCOCCNC(=O)COCCOCCNC(=O)CC[C@H](NC(=O)CCCCCCCCCCCCCCCCCCC(=O)O)C(=O)O)C(=O)N[C@@H](C)C(=O)N1CCC[C@H]1C(=O)N1CCC[C@H]1C(=O)N1CCC[C@H]1C(=O)N[C@@H](CO)C(N)=O)[C@@H](C)CC)[C@@H](C)CC
- hGLP1R cAMP EC50 ratio (human GLP-1 receptor): 0.0777
- hGLP1R cAMP Rel EC50 (human GLP-1 receptor): 0.862 nM
- hGIPR cAMP EC50 ratio (human GIP receptor): 1.28
- hGIPR cAMP Rel EC50 (human GIP receptor): 0.112 nM

— patent US20220048967A1 (published 2022)
